Values joined by “and” are separate entries in the source; they are usually repeats but may differ in a detail not shown here. Equal entries are not always repeated.
Target: the molecule itself
Experiment: cross-linking; purified N-terminal His6-ArgR cross-linked with various amounts of glutaraldehyde (multimers at 0.05%) in 50 mM HEPES pH 8.0, 150 mM KCl, 1 mM L-arginine, with or without 1% beta-mercaptoethanol, room temperature, 2 h; 10% SDS-PAGE, Coomassie staining

B1: Listeria monocytogenes 10403S arginine repressor ArgR (natural protein, UniProt B8DFW1 1-149, looked up)
chain: MNKGHRHIIIRELITSNEIDTQEDLVELLLERDVKVTQATVSRDIKELHLVKVPTQTGGYKYSLPADNSFNPHQKLKRALIDCFIGIDNVQFMIILKVMPGNGNSVGALIDNLDWPEKAGTICGDDTCLIICRSEENAKTLTDRFIDML
notes: ArgR, arginine repressor of the ArgR/AhrC family, Listeria monocytogenes strain 10403S; full-length ORF amplified from the 10403S genome; the his-tagged protein runs at about 23 kDa; also called recombinant ArgR; his-tagged ArgR protein; not shown: His6, N-terminal, kept
Q: B1 was tested. Which “stoichiometry N” value did it give?
A: 3 and 6

— article PMC5291005, “Listeria monocytogenes 10403S Arginine Repressor ArgR Finely Tunes Arginine Metabolism Regulation under Acidic Conditions” (Frontiers in Microbiology, 2017)
